Source: patent publication US20170137467A1 (CHROMOTEK, published 2017)
Square brackets hold non-standard residues; d marks the D form. GABA = NCCCC(=O)O

Legend:
Experiment in all cases: peptide library pulldown on immobilized Nb, LC-MS of supernatant; ratio vs GFP-Nb control (1 = not captured, 0 = captured)
BC2T H9V library peptide = target: T1, BC2T H9V library peptide (human)
T1 peptide: Ac-PDRKAAVSVWQQ-NH2
Procedure, shortened: (§1)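 Unbound peptide left in supernatant after 1 h pulldown in PBS/0.01% CHAPS measured by reversed-phase LC-MS (8–30% eluent B gradient, 20 min).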

BC2T S8P library peptide = target: T2, BC2T S8P library peptide (human)
T2 construct: also called BC2TS8X: P
T2 peptide: Ac-PDRKAAVPHWQQ-NH2
Procedure, shortened: as §1

BC2T S8M library peptide = target: T3, BC2T S8M library peptide (human)
T3 construct: also called BC2TS8X: M
T3 peptide: Ac-PDRKAAVMHWQQ-NH2
Procedure, shortened: as §1

[1] = target: T4, BC2T Q11T library peptide (human)
T4 peptide: Ac-PDRKAAVSHWTQ-NH2
Procedure, shortened: as §1

[2] = target: T5, BC2T Q12W library peptide (human)
T5 peptide: Ac-PDRKAAVSHWQW-NH2
Procedure, shortened: as §1

[3] = target: T6, BC2T S8(I/L) library peptide, version 1 (N-terminal acetyl, C-terminal amide)
T6 construct: Ile and Leu versions are isobaric; two versions resolved but not assigned; also called BC2TS8X: I/L1
Procedure, shortened: as §1

[4] = target: T7, BC2T Q11K library peptide (human)
T7 peptide: Ac-PDRKAAVSHWKQ-NH2
Procedure, shortened: as §1

[5] = target: T8, BC2T Q12D library peptide (human)
T8 peptide: Ac-PDRKAAVSHWQD-NH2
Procedure, shortened: as §1

[6] = target: T9, BC2T Q11E library peptide (human)
T9 peptide: Ac-PDRKAAVSHWEQ-NH2
Procedure, shortened: as §1

BC2T S8E library peptide = target: T10, BC2T S8E library peptide (human)
T10 construct: also called BC2TS8X: E
T10 peptide: Ac-PDRKAAVEHWQQ-NH2
Procedure, shortened: as §1

[7] = target: T11, BC2T Q12S library peptide (human)
T11 peptide: Ac-PDRKAAVSHWQS-NH2
Procedure, shortened: as §1

[8] = target: T12, BC2T H9(I/L) library peptide, version 2 (N-terminal acetyl, C-terminal amide)
T12 construct: Ile and Leu versions are isobaric; two versions resolved but not assigned; also called I/L2
Procedure, shortened: as §1

[9] = target: T13, BC2T S8C* library peptide (human, also: Abu described as gamma-amino butyric acid)
T13 construct: also called BC2TS8X: C*; C(Abu)
T13 peptide: Ac-PDRKAAV[GABA]HWQQ-NH2
Procedure, shortened: as §1

[10] = target: T14, BC2T W10D library peptide (human)
T14 construct: also called BC2TW10X: D
T14 peptide: Ac-PDRKAAVSHDQQ-NH2
Procedure, shortened: as §1

[11] = target: T15, BC2T S8(I/L) library peptide, version 2 (N-terminal acetyl, C-terminal amide)
T15 construct: Ile and Leu versions are isobaric; two versions resolved but not assigned; also called BC2TS8X: I/L2
Procedure, shortened: as §1

BC2T H9K library peptide = target: T16, BC2T H9K library peptide (human)
T16 peptide: Ac-PDRKAAVSKWQQ-NH2
Procedure, shortened: as §1

[12] = target: T17, BC2T Q12N library peptide (human)
T17 peptide: Ac-PDRKAAVSHWQN-NH2
Procedure, shortened: as §1

[13] = target: T18, BC2T Q12A library peptide (human)
T18 peptide: Ac-PDRKAAVSHWQA-NH2
Procedure, shortened: as §1

[14] = target: T19, BC2T W10P library peptide (human)
T19 construct: also called BC2TW10X: P
T19 peptide: Ac-PDRKAAVSHPQQ-NH2
Procedure, shortened: as §1

ratio (BC2T H9V library peptide): 0.5
ratio (BC2T S8P library peptide): 1
ratio (BC2T S8M library peptide): 1
ratio [1]: 0.2
ratio [2]: 0.2
ratio [3]: 0.5
ratio [4]: 0.1
ratio [5]: 0.8
ratio [6]: 0.4
ratio (BC2T S8E library peptide): 0.9
ratio [7]: 0.1
ratio [8]: 0.2
ratio [9]: 0.1
ratio [10]: 1.1
ratio [11]: 0.9
ratio (BC2T H9K library peptide): 0.2
ratio [12]: 0.1
ratio [13]: 0.1
ratio [14]: 1.1
B1: BC2-Nb(R106E) (VHH)
VHH: QVQLVESGGGLVQPGGSLTLSCTASGFTLDHYDIGWFRQAPGKEREGVSCINNSDDDTYYADSVKGRFTIFMDNAKDTVYLQMNSLKPEDTAIYYCAEARGCKRGEYEYDFWGQGTQVTVSS
notes: Headlock mutant; immobilized on beads in the library pulldown
